Source: article PMC5260992

Target: Pin1 (UniProt Q13526)
Assay: modified ELISA, plate-coated peptide
Conditions: reference: non-phosphorylated peptide T184; sites T184

ATF1 (activating transcription factor 1) (from UniProt P18846) phosphorylated peptide pT184
binding against the reference: stronger
